The text below walks through data of patent US20120225055A1 (GlaxoSmithKline, published 2012).

In assay [1] the target is T1, human serum amyloid P component (SAP), purified (Homo sapiens, UniProt P02743 20-223).
T1 construct: Immobilised directly, amine-coupled, captured on O-phosphoethanolamine or by sheep polyclonal antibody, depending on the assay; also called human SAP; native human SAP
In words: direct ELISA, human SAP coated at 5 µg/mL, detection with HRP rabbit anti-mouse IgG. As for the experimental part: (§1) 1 μg/mL or 5 μg/mL human SAP was directly immobilised onto an ELISA plate and blocked with 1% BSA/TBS plus 0.05% TWEEN20. Anti-SAP antibodies from purified material were titrated across the plate. Bound antibody was detected by treatment with a horse-radish peroxidase (HRP)-conjugated rabbit-anti-mouse IgG antibody (Dako, P0260). The ELISA was developed using O-phenylenediamine dihydrochloride (OPD) peroxidase substrate (Sigma, P9187).

Assay [2] addresses T1, human serum amyloid P component (SAP), …. Kind of assay: Biacore (BIAcoreX), human SAP covalently immobilised on the chip; mean and SD of 3 replicates.
Assay [3] has the same target. In words: Biacore, human SAP captured on immobilised O-phosphoethanolamine (CM5 chip, calcium), bivalent analyte model. How it is done: (§2) O-phosphoethanolamine was immobilised on a Biacore CM5 chip by primary amine coupling in accordance with the manufacturer's instructions. Human SAP was then captured on the surface in the presence of calcium chloride, in order to replicate in the Biacore system in vitro, the precise orientation of SAP molecules bound to amyloid fibrils in vivo. Anti SAP antibodies were then passed over this surface at 256, 64, 16, 4, 1 nM and a binding sensorgrams obtained. Analysis was carried out at 25° C. using 4% BSA, 10 mM Tris, 140 mM NaCl, 2 mM CaCl₂, 0.05% surfactant P20, 0.02% Na N₃, pH 8.0 as running buffer. […] Data generated were double referenced with a buffer injection over the human SAP surface and analyzed using the bivalent analyte model in the Biacore T100 evaluation software.

The target is the same in assay [4]. Kind of assay: direct ELISA, human SAP coated at 1 µg/mL, detection with HRP rabbit anti-mouse IgG. How it is done: as §1
For assay [5] the target is unchanged. Kind of assay: Biacore, human SAP amine-coupled on CM3 chip, bivalent analyte model. How it is done: Human SAP was immobilised on a Biacore CM3 chip by primary amine coupling in accordance with the manufacturer's instructions. […] All runs were double referenced with a buffer injection over the human SAP surface. Analysis was carried out at 25° C. using HBS-EP buffer.

Assay [6] has the same target. In words: ELISA, 1 ug/mL human SAP directly immobilised. How it is done:
(§3) 1 μg/mL human SAP was directly immobilised onto an ELISA plate and blocked with 1% BSA/TBS plus 0.05% TWEEN20. Anti-SAP antibodies from the test supernatants or purified material were titrated across the plate. Bound antibody was detected by treatment with goat anti-human Kappa Light Chains peroxidase conjugate (Sigma, A7164). The ELISA was developed using O-phenylenediamine dihydrochloride (OPD) peroxidase substrate (Sigma, P9187).

For assay [7] the target is unchanged. In words: direct ELISA, human SAP coated at 1 µg/mL, detection with goat anti-human kappa light chain peroxidase conjugate. As for the experimental part:
as §3

For assay [8] the target is unchanged. In words: Biacore, human SAP amine-coupled on C1 chip, culture supernatant, 1 to 1 dissociation model, single curve. As for the experimental part: Human and cynomologus monkey SAP were immobilised on a Biacore C1 chip by primary amine coupling in accordance with the manufacturer's instructions. […] All runs were double referenced with a buffer injection for purified sample or media for the supernatant samples over the human and cyno SAP surfaces. Analysis was carried out at 25° C. using HBS-EP buffer. […] Data were analysed using the 1 to 1 dissociation model within the Biacore T100 evaluation software.
The values were based on a single curve and used for ranking purposes between the different constructs for binding to human SAP.
Target sequence in this assay (P02743 20-223): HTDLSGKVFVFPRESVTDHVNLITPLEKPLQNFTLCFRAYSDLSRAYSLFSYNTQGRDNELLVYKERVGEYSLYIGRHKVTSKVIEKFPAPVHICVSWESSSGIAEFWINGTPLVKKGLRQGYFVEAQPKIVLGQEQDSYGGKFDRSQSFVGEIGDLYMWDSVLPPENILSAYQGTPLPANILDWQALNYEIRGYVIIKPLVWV

Assay [9] shares this target. Kind of assay: Biacore kinetics, human SAP captured on immobilised O-phosphoethanolamine; alanine at position 91 of L0, not wild-type H3L0. As for the experimental part: as §2
For assay [10] the target is unchanged. Kind of assay: binding ELISA and Biacore off-rate ranking.

B1: SAP-K mouse monoclonal anti-human SAP antibody (antibody, mouse IgG2a, V domains shown)
VH: QVQLQQPGAELIKPGASVKLSCKASGYTFTSYWMHWVKQRPGQGLEWIGMIHPNSVNTNYNEKFKSKATLTVDKSSSTAYMQLNSLTSEDSAVYYCARRNDYYWYFDVWGTGTTVTVSS
VL: DIVMTQSQKFMSTSVGDRVSVTCKASQNVNSNVAWYQQKPGQSPKALIYSASYRYSGVPDRFTGSGSGTDFTLTITNVQSEDLAEYFCQQCNNYPFTFGSGTKLEIK
notes: also called Mouse SAP-K; murine SAP-K
Turning to B1, the results for the “EC50 (read off the curve)” value in [1] and in [4] were about 0.02 µg/mL and about 0.04 µg/mL, respectively. The figures for the Kd in assay [2] and in [3] were 1 nM and 0.73 nM, respectively. Besides, the koff in [2] was determined as 1.7e-05 s⁻¹; in [3], 0.000219 s⁻¹. The kon in assay [2] amounted to 31800 M⁻¹ s⁻¹; in [3], 300000 M⁻¹ s⁻¹.

B2: SAP-K H1L0 humanised antibody (antibody, V domains shown)
VH: QVQLVQSGAEVKKPGSSVKVSCKASGYTFTSYWMHWVRQAPGQGLEWMGMIHPNSVNTNYNEKFKSRVTITADKSTSTAYMELSSLRSEDTAVYYCARRNDYYWYFDVWGQGTLVTVSS
VL: DIQMTQSPSSLSASVGDRVTITCKASQNVNSNVAWYQQKPGKAPKLLIYSASYRYSGVPSRFSGSGSGTDFTLTISSLQPEDFATYYCQQCNNYPFTFGQGTKLEIK
In the case of B2, in assay [5], the Kd turned out to be 155 nM, the off-rate (koff) came to 0.0178 s⁻¹ and the kon is 115000 M⁻¹ s⁻¹. The “fold loss of human SAP binding activity compared to the SAP-K chimera” value (shortened to “fold loss of human SAP binding activity”) in assay [6] was about 2 fold. For the same molecule, the “EC50 (read off the curve)” value in assay [7] is about 0.1 µg/mL. Further, the koff in [8] stood at 0.0171 s⁻¹.

B3: SAP-K H1L1 humanised antibody (antibody, V domains shown)
VH: QVQLVQSGAEVKKPGSSVKVSCKASGYTFTSYWMHWVRQAPGQGLEWMGMIHPNSVNTNYNEKFKSRVTITADKSTSTAYMELSSLRSEDTAVYYCARRNDYYWYFDVWGQGTLVTVSS
VL: DIQMTQSPSSLSASVGDRVTITCKASQNVNSNVAWYQQKPGKAPKALIYSASYRYSGVPSRFSGSGSGTDFTLTISSLQPEDFATYYCQQCNNYPFTFGQGTKLEIK
B3 came in with a koff in [8] of 0.0296 s⁻¹.

B4: SAP-K H3 with L0 91A humanised light chain variant (antibody, human IgG1, V domains shown)
VH: QVQLVQSGAEVKKPGSSVKVSCKASGYTFTSYWMHWVRQAPGQGLEWIGMIHPNSVNTNYNEKFKSRATLTVDKSTSTAYMELSSLRSEDTAVYYCARRNDYYWYFDVWGQGTLVTVSS
VL: DIQMTQSPSSLSASVGDRVTITCKASQNVNSNVAWYQQKPGKAPKLLIYSASYRYSGVPSRFSGSGSGTDFTLTISSLQPEDFATYYCQQANNYPFTFGQGTKLEIK
notes: Human IgG1/kappa; also called variant with alanine at position 91
Turning to B4, the Kd in assay [9] is 0.436 nM.

B5: SAP-K H3L1 humanised antibody (antibody, V domains shown)
VH: QVQLVQSGAEVKKPGSSVKVSCKASGYTFTSYWMHWVRQAPGQGLEWIGMIHPNSVNTNYNEKFKSRATLTVDKSTSTAYMELSSLRSEDTAVYYCARRNDYYWYFDVWGQGTLVTVSS
VL: DIQMTQSPSSLSASVGDRVTITCKASQNVNSNVAWYQQKPGKAPKALIYSASYRYSGVPSRFSGSGSGTDFTLTISSLQPEDFATYYCQQCNNYPFTFGQGTKLEIK
In [8], B5 came in with a koff of 0.0236 s⁻¹.

B6: SAP-K H0L0 humanised antibody (antibody, V domains shown)
VH: QVQLVQSGAEVKKPGSSVKVSCKASGGTFSSYWMHWVRQAPGQGLEWMGMIHPNSVNTNYNEKFKSRVTITADKSTSTAYMELSSLRSEDTAVYYCARRNDYYWYFDVWGQGTLVTVSS
VL: DIQMTQSPSSLSASVGDRVTITCKASQNVNSNVAWYQQKPGKAPKLLIYSASYRYSGVPSRFSGSGSGTDFTLTISSLQPEDFATYYCQQCNNYPFTFGQGTKLEIK
In assay [5], B6 returned a Kd of 739 nM, a koff of 0.0449 s⁻¹ and a kon of 60800 M⁻¹ s⁻¹. Besides, the “fold loss of human SAP binding activity” value in assay [6] was about 2 fold. This molecule displayed a koff in assay [8] of 0.0263 s⁻¹.

B7: SAP-K H2L0 humanised antibody (antibody, V domains shown)
VH: QVQLVQSGAEVKKPGSSVKVSCKASGYTFTSYWMHWVRQAPGQGLEWIGMIHPNSVNTNYNEKFKSRATITADKSTSTAYMELSSLRSEDTAVYYCARRNDYYWYFDVWGQGTLVTVSS
VL: DIQMTQSPSSLSASVGDRVTITCKASQNVNSNVAWYQQKPGKAPKLLIYSASYRYSGVPSRFSGSGSGTDFTLTISSLQPEDFATYYCQQCNNYPFTFGQGTKLEIK
Regarding B7, in [5], the Kd turned out to be 191 nM, the koff turned out to be 0.022 s⁻¹ and the kon is 115000 M⁻¹ s⁻¹. Moreover, the “fold loss of human SAP binding activity” value in assay [6] is about 2 fold. Further, the koff in assay [8] was 0.0204 s⁻¹.

B8: SAP-K H1 with L0 91A humanised light chain variant (antibody, human IgG1, V domains shown)
VH: QVQLVQSGAEVKKPGSSVKVSCKASGYTFTSYWMHWVRQAPGQGLEWMGMIHPNSVNTNYNEKFKSRVTITADKSTSTAYMELSSLRSEDTAVYYCARRNDYYWYFDVWGQGTLVTVSS
VL: DIQMTQSPSSLSASVGDRVTITCKASQNVNSNVAWYQQKPGKAPKLLIYSASYRYSGVPSRFSGSGSGTDFTLTISSLQPEDFATYYCQQANNYPFTFGQGTKLEIK
notes: Human IgG1/kappa; also called alanine variant paired with H1
For B8, in assay [10], the binding result is reported as “binds”.

B9: SAP-K H2L1 humanised antibody (antibody, V domains shown)
VH: QVQLVQSGAEVKKPGSSVKVSCKASGYTFTSYWMHWVRQAPGQGLEWIGMIHPNSVNTNYNEKFKSRATITADKSTSTAYMELSSLRSEDTAVYYCARRNDYYWYFDVWGQGTLVTVSS
VL: DIQMTQSPSSLSASVGDRVTITCKASQNVNSNVAWYQQKPGKAPKALIYSASYRYSGVPSRFSGSGSGTDFTLTISSLQPEDFATYYCQQCNNYPFTFGQGTKLEIK
B9: the koff in assay [8] came out at 0.0321 s⁻¹.
